Article PMC4908180

Legend:
[1] = system: Nc1ncnc2c1ncn2[C@@H]1O[C@H](COP(=O)(O)OP(=O)(O)OP(=O)(O)O)[C@@H](O)[C@H]1O; assay: purified protein; conditions: FMN co-substrate, MgCl2, Tris-HCl pH 7.5, 37°C
[2] = system: Cc1cc2nc3c(=O)[nH]c(=O)nc-3n(C[C@H](O)[C@H](O)[C@H](O)COP(=O)(O)O)c2cc1C; assay: purified protein; assay type: biochemical, Homo sapiens; conditions: 100 μM ATP, 5 mM MgCl2, 50 mM Tris-HCl pH 7.5, 37°C

Substance | Km [1] | Km [2]
6His-tagged human FADS isoform 2 (FADS2), WT (Homo sapiens) | 8.10 ± 1.37 µM | 0.32 ± 0.10 µM
6His-tagged human FADS isoform 2 (FADS2), WT (Homo sapiens; DEL495-495) | 8.02 ± 2.23 µM | 0.98 ± 0.23 µM
6His-tagged human FADS isoform 2 (FADS2), WT (Homo sapiens; R530C) | 4.63 ± 1.00 µM | 0.39 ± 0.07 µM
